Data on 22 molecules can be found in patent US20200216495A1 (ADRX, published 2020).

Square brackets hold non-standard residues; d marks the D form. Ends that are not written are not given here.

This test concerns the target Ac-VQIINK-NH2 (SEQ ID NO: 23) (N-terminal acetyl (Ac); C-terminal amide (NH2)). Briefly: cell-based or functional assay.
As to [dF][dR][dL][dK][dL][dR][dF][dH] [frlklrfh], the “VQIINK Inhibition IC50” value was determined as 1.8 µm.

Regarding [dW][dW][dL][dR][dI][dH][dW][dW] [wwlrihww], the “VQIINK Inhibition IC50” value stood at 1.83 µm.

In the case of [dW][dR][dL][dK][dV][dR][dW][dH] [wrlkvrwh], the “VQIINK Inhibition IC50” value amounted to 1.92 µm.

Consider [dL][dK][dI][dR][dI][dH][dL][dH] [lkirihlh], for which the “VQIINK Inhibition IC50” value turned out to be 1.81 µm.

[dL][dK][dI][dK][dI][dH][dY] [lkikihy]: the “VQIINK Inhibition IC50” value was 1.96 µm.

As to [dL][dR][dI][dR][dI][dR][dF][dH] [lririrfh], the “VQIINK Inhibition IC50” value came out at 1.84 µm.

For [dW][dR][dL][dK][dV][dR][dW][dW] [wrlkvrww], the “VQIINK Inhibition IC50” value was found to be 1.97 µm.

With [dW][dR][dF][dK][dF][dR][dW] [wrfkfrw], the “VQIINK Inhibition IC50” value was determined as 1.95 µm.

In the case of [dF][dH][dL][dE][dI][dR][dH][dW] [fhleirhw], the “VQIINK Inhibition IC50” value was determined as 1.79 µm.

Turning to [dW][dR][dL][dR][dI][dH][dW][dW] [wrlrihww], the “VQIINK Inhibition IC50” value came out at 1.88 µm.

On to [dL][dK][dI][dR][dI][dH][dE][dH] [lkiriheh], for which the “VQIINK Inhibition IC50” value stood at 1.75 µm.

[dF][dK][dI][dH][dI][dK][dH][dY] [fkihikhy]: the “VQIINK Inhibition IC50” value was determined as 1.77 µm.

As for [dF][dR][dL][dR][dI][dH][dW][dF] [frlrihwf], the “VQIINK Inhibition IC50” value was 1.81 µm.

[dH][dR][dL][dK][dV][dR][dW][dW] [hrlkvrww]: the “VQIINK Inhibition IC50” value worked out at 1.77 µm.

In the case of [dW][dR][dL][dR][dI][dW][dW][dW] [wrlriwww], the “VQIINK Inhibition IC50” value was found to be 1.75 µm.

In the case of [dW][dK][dL][dW][dL][dR][dW] (not fully specified; printed as wklwlrw) [wklwlrw], the “VQIINK Inhibition IC50” value was determined as 1.95 µm.

Regarding [dF][dE][dI][dR][dL][dH][dH][dW] [feirlhhw], the “VQIINK Inhibition IC50” value is 1.78 µm.

Take [dL][dK][dL][dE][dI][dR][dW][dH] [lkleirwh]: the “VQIINK Inhibition IC50” value stood at 1.76 µm.

As to [dW][dK][dL][dK][dL][dR][dW][dW] [wklklrww], the “VQIINK Inhibition IC50” value is 1.76 µm.

[dH][dR][dL][dK][dV][dR][dW][dH] [hrlkvrwh]: the “VQIINK Inhibition IC50” value came to 1.97 µm.

Consider [dL][dK][dI][dR][dI][dW][dY][dH] [lkiriwyh], for which the “VQIINK Inhibition IC50” value came to 1.89 µm.

For the molecule [dL][dA][dI][dR][dI][dH][dY][dH] [lairihyh], the “VQIINK Inhibition IC50” value stood at 1.98 µm.
